Laboratory results: US20140341888A1

Biological target: EGFR-AP fusion protein (UniProt P00533)
Test: SPR (BIAcore), EGFR-AP immobilized, antibody 1.5 nM to 100 nM

Sequence of IMC-11F8 Fab (VH): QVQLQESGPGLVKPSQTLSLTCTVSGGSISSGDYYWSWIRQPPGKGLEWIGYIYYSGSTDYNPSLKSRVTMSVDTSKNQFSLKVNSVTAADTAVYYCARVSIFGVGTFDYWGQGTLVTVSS
Sequence of IMC-11F8 Fab (VL): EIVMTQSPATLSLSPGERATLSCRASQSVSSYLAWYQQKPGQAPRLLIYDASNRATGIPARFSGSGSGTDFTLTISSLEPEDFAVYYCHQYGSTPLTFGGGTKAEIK

IMC-11F8 Fab
Kd: 1.78 nM
koff: 0.00367 s⁻¹
kon: 2.29e+06 M⁻¹ s⁻¹
